Reference: PMC3466194

Target: TetR (Tet Repressor) (UniProt P04483)
Assay: not stated in material (in vitro binding)
Conditions: not given in the material held (binding assay methods absent)

Sequence of TetR (Tet Repressor) (P04483 whole entry): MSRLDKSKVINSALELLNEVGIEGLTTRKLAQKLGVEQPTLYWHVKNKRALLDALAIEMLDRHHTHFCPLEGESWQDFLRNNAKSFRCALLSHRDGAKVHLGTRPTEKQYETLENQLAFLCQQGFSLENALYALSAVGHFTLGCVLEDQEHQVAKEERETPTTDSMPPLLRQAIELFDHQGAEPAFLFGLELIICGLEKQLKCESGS

GGGCUUGUUACCAGACAACCAUUACUUAUCCUAUCAAUCUGCCUUAUCCAAAGAUCCAAACGAAAAGAGAGACCACAUGGUCUUGUUAGAAUUUGUUACUUAAUCUAGAAAUUAUCUAGGAUCCAGGCAGAGAAAGGUCGAUACGGACGGAAUGUGAUGGCCUGGAUCCAACACAAAACUCGAGAACAUCCCGGGAAAAUCUAGAAUUCCUUCGAUAGAUCAAUUUUUUUCUUUUCUCUUUCCCCAUCCUUUACGCUAAAAUAAUAGUUUAUUUUAUUUUUUGAAUAUUUUUUAUUUAUAUACGUAUAUAUAGACUAUUAUUUAUCUUUUAAUGAUU [3'UTR + aptamer (vYFPΔ-5-1.2 bases 613-946)]
Kd: 0.8 nM
